Target: platelet membrane GPIIb-IIIa complex (alpha IIb/beta 3 integrin) (human (endogenous in platelets)) (UniProt P08514)
Assay: radioligand binding

% inhibition of fibrinogen binding at 100 uM RGDS: 92%
Binder: RGDS [arginine, glycine, aspartic acid (RGDS)]

Reference: PMC2191135
